The results in this text go back to publication PMC6611850.

Experiment [1] addresses T. thermophilus Csm2 (T. thermophilus). In words: cryo-EM structure; TthCsm bound to a 50-nt complementary target RNA, with noncomplementary ssDNA and 1 mM EDTA; 3.8 Å.
Experiment [2] addresses T. thermophilus Csm3 (T. thermophilus). The experiment is described as above.

The stoichiometry N is a count of units in the complex or per binding partner. As to T. thermophilus Csm2 (natural protein), in experiment [1], the stoichiometry N turned out to be 4. The substance T. thermophilus Csm3 (natural protein) gave a stoichiometry N in experiment [2] of 6.
